How the values were obtained:
p53 wild type [1] = target: T1, p53 wild type (Homo sapiens, UniProt P04637 P04637:1-393); assay: EMSA; DnaK-activated, 1 mM ATP; conditions: tags: bacterial expression, Fraction III; chain copies: 4 inferred; label: 32P; Hind III compatible overhangs
Procedure: (§1) In the first stage, wild type p53 (60 ng) or mutant forms of p53 (180 ng) was incubated with ATP and the indicated activating protein at 30° C. for 30 minutes. In the second stage, the consensus site oligonucleotide was added to the reactions to assay for sequence-specific DNA binding. (A) PAb421; lane 1, 3 and 5 (p53, p53 His 273, and p53 Lys285, respectively), lanes 2, 4 and 6 (PAb421 and p53, p53 His273, and p53 Lys285, respectively). (B) DnaK; lanes 1, 5, and 9 (p53, p53 His273, and p53 Lys285, respectively), lanes 2, 6 and 10 (DO-1 and p53, p53 His273, and p53 Lys285, respectively), lanes 3, 7 and 11 (DnaK and p53, p53 His273, and p53 Lys285, respectively), lanes 4, 8 and 12 (DnaK and p53, p53 His273, and p53 Lys285, respectively, followed by DO-1). […] PAb421-activated p53 (solid bar), DnaK-activated p53 (open bar), casein kinase II-activated p53 (stippled bar).

p53 wild type [2] = target: T1, p53 wild type; assay: EMSA; casein kinase II-activated, 1 mM ATP; conditions: tags: bacterial expression, Fraction III; chain copies: 4 inferred; label: 32P; Hind III compatible overhangs
Procedure: as §1

T1 sequence (P04637 whole entry, one chain of several): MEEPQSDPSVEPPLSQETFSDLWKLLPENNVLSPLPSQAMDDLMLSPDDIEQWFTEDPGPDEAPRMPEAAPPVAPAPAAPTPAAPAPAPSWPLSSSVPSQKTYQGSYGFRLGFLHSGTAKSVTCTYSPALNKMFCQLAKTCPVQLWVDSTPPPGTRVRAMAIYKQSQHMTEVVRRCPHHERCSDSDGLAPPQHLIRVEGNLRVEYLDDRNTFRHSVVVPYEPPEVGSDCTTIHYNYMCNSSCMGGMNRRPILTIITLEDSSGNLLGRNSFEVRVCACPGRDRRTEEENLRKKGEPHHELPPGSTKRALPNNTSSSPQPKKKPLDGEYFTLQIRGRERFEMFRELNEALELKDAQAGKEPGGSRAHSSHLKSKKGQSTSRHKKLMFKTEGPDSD

B1: PG p53 consensus site (dsDNA)
DNA 1: AGCTTAGACATGCCTAGACATGCCTA
DNA 2: AGCTTAGGCATGTCTAGGCATGTCTA
B1 gave an activity (p53 wild type [1]) of 57 fmol DNA bound/ug protein and an activity (p53 wild type [2]) of 64 fmol DNA bound/ug protein.
